This is an account of results in US20240272170A1 (QUANTUM SI, published 2024).

Assay [1] deals with T1, QP1165 after cleavage to N-terminal alanine (AFLKQRVWK).
T1 peptide: AFLKQRVWK
The assay is described as follows: on-chip dynamic sequencing of QP1165, PS2132 run, trace Aperture=376215.

The target of assay [2] is T1, QP1165 after cleavage to N-terminal …. As to the kind of experiment: on-chip dynamic sequencing of QP1165, PS1875 run, trace Aperture=430641.
Assay [3] shares this target. As to the kind of experiment: on-chip dynamic sequencing of QP1165, PS2121 run, trace Aperture=740473.
The target is the same in assay [4]. The assay is described as follows: on-chip dynamic sequencing of QP1165, PS2123 run, trace Aperture=501326.
Assay [5] shares this target. As to the kind of experiment: on-chip dynamic sequencing of QP1165, PS2132 run, trace Aperture=1826247.
For assay [6] the target is unchanged. As to the kind of experiment: on-chip dynamic sequencing of QP1165, PS1875 run, trace Aperture=1353995.
Assay [7] has the same target. As to the kind of experiment: on-chip dynamic sequencing of QP1165, PS2121 run, trace Aperture=1683362.
Assay [8] shares this target. The assay is described as follows: on-chip dynamic sequencing of QP1165, PS1875 run, trace Aperture=1311609.
The target is the same in assay [9]. As to the kind of experiment: on-chip dynamic sequencing of QP1165, PS1875 run, trace Aperture=1377116. On the procedure: (§1) The semiconductor chip was placed in the sequencing device and a chip check was performed to test electronic circuit function and to optimize laser coupling alignment. The chip was then removed from the device socket and the chip was washed twice with 50 μL of 70% isopropanol, followed by four washes with 30 μL of wash buffer (50 mM MOPS pH 8.0, 60 mM potassium acetate, 50 mM glucose, 20 mM magnesium acetate, and surfactant mix) through a flow cell attached to the chip. A second chip check was then performed. The laser was then blocked via an integrated software-controlled shutter, peptide complex was added to a final concentration of 1-10 nM and mixed thoroughly, and the chip was incubated for 15 min. The chip was then washed six times with wash buffer, followed by addition of an imaging solution (wash buffer with 5 mM Trolox and an oxygen scavenging system). The laser was unblocked and the occupancy percentage (target 10-30%, Poisson distributed) was recorded by acquiring a photobleaching signal from a fluorophore attached to the peptide complex during 5 min of laser illumination. […] Data was recorded for 15 min. The laser was then blocked briefly and aminopeptidases were added to the sequencing reaction via the flow cell and mixed thoroughly (final concentration 2-8 μM PhTET2 and/or 20-80 μM PhTET3, as indicated according to the experiment). The laser was then unblocked, and data was recorded for 10 hours. For all runs, 30 μL of mineral oil was added to fluid reservoirs at each port of the flow cell to prevent evaporation during the run.

For assay [10] the target is unchanged. The assay is described as follows: on-chip dynamic sequencing of QP1165, PS2123 run, trace Aperture=1168773.
For assay [11] the target is unchanged. As to the kind of experiment: on-chip dynamic sequencing of QP1165, 500 nM PS1875 plus five recognizers, 7305 alignments.
For assay [12] the target is unchanged. As to the kind of experiment: on-chip dynamic sequencing of QP1165, 500 nM PS1875 plus five recognizers, 3369 alignments.
Assay [13] shares this target. The assay is described as follows: on-chip dynamic sequencing of QP1165, 500 nM PS2132 plus five recognizers, 36192 alignments.
Assay [14] shares this target. The assay is described as follows: on-chip dynamic sequencing of QP1165, 500 nM PS2121 plus five recognizers, 15527 alignments.
Assay [15] shares this target. As to the kind of experiment: on-chip dynamic sequencing of QP1165, 500 nM PS1875 plus five recognizers, 11565 alignments. Here is the method:
as §1

The target is the same in assay [16]. As to the kind of experiment: on-chip dynamic sequencing of QP1165, 500 nM PS2123 plus five recognizers, 62511 alignments.
In assay [17] the target is T2, QP1165 after cleavage to N-terminal arginine (RVWK).
T2 peptide: RVWK
The assay is described as follows: on-chip dynamic sequencing of QP1165, PS1875 run, trace Aperture=295010.

The target in assay [18] is T2, QP1165 after cleavage to N-terminal …. As to the kind of experiment: on-chip dynamic sequencing of QP1165, PS1875 run, trace Aperture=340501.
Assay [19] shares this target. The assay is described as follows: on-chip dynamic sequencing of QP1165, PS2132 run, trace Aperture=376215.
For assay [20] the target is unchanged. The assay is described as follows: on-chip dynamic sequencing of QP1165, PS1875 run, trace Aperture=430641.
Assay [21] has the same target. As to the kind of experiment: on-chip dynamic sequencing of QP1165, PS2121 run, trace Aperture=740473.
For assay [22] the target is unchanged. As to the kind of experiment: on-chip dynamic sequencing of QP1165, PS2132 run, trace Aperture=1826247.
For assay [23] the target is unchanged. The assay is described as follows: on-chip dynamic sequencing of QP1165, PS1875 run, trace Aperture=1353995.
Assay [24] has the same target. The assay is described as follows: on-chip dynamic sequencing of QP1165, PS2121 run, trace Aperture=1683362.
For assay [25] the target is unchanged. As to the kind of experiment: on-chip dynamic sequencing of QP1165, PS1875 run, trace Aperture=1377116. Here is the method: as §1
The target is the same in assay [26]. As to the kind of experiment: on-chip dynamic sequencing of QP1165, PS2123 run, trace Aperture=1168773.
For assay [27] the target is unchanged. As to the kind of experiment: on-chip dynamic sequencing of QP1165, 500 nM PS1875 plus five recognizers, 7305 alignments.
For assay [28] the target is unchanged. The assay is described as follows: on-chip dynamic sequencing of QP1165, 500 nM PS1875 plus five recognizers, 3369 alignments.
The target is the same in assay [29]. As to the kind of experiment: on-chip dynamic sequencing of QP1165, 500 nM PS2132 plus five recognizers, 36192 alignments.
For assay [30] the target is unchanged. The assay is described as follows: on-chip dynamic sequencing of QP1165, 500 nM PS2121 plus five recognizers, 15527 alignments.
For assay [31] the target is unchanged. The assay is described as follows: on-chip dynamic sequencing of QP1165, 500 nM PS1875 plus five recognizers, 11565 alignments. Here is the method: as §1
Assay [32] has the same target. As to the kind of experiment: on-chip dynamic sequencing of QP1165, 500 nM PS2123 plus five recognizers, 62511 alignments.
Assay [33] addresses T3, RA peptide (XAKLDEESILKQK-FITC, X = R).
T3 construct: also called peptide with N-terminal arginine
T3 peptide: RAKLDEESILKQK(FITC)
As to the kind of experiment: fluorescence polarization titration, 20 C. On the procedure:
(§2) Binding affinity was measured by polarization using a labeled peptide. The polarization response and total intensity measurements were carried out at 20° C. on a microplate fluorometer with 480 nm excitation and 530 nm emission. […] Multiple analyses were performed at increasing recognizer concentration at a fixed concentration of a target peptide to obtain a titration curve. An equilibrium polarization response at each concentration was plotted and fit to calculate the KD.
(§3) Fluorescence polarization assays were performed with all candidates, and single point binding responses were measured at a fixed concentration of the binders (FIG. 13A). […] We carried out multiple polarization binding titration analysis at increasing concentration of binder protein, and the Kds were determined from the titration curves (FIG. 13B).

In assay [34] the target is T4, HA peptide (XAKLDEESILKQK-FITC, X = H).
T4 construct: also called peptide with N-terminal histidine
T4 peptide: HAKLDEESILKQK(FITC)
The assay is described as follows: fluorescence polarization titration, 20 C. Here is the method:
as §2, §3
A general note: Fluorescence polarisation rises when a labelled molecule tumbles more slowly, as on binding a larger partner.

In assay [35] the target is T3, RA peptide (XAKLDEESILKQK-FITC, X = R). As to the kind of experiment: fluorescence polarization titration, PS621 0-5000 nM. Here is the method: as §2, §3
Assay [36] concerns the target T5, second R of YRELRLLK (RLLK).
T5 construct: also called parent peptide after cleavage to the second arginine
T5 peptide: RLLK
As to the kind of experiment: on-chip single-molecule dynamic sequencing, example traces, time axis 0-600 min.
Text: PTM detection involved isolating peptides and subjecting them to a real-time single-molecule protein sequencing reaction. Proteins were first digested into peptide fragments and conjugated C-terminally to macromolecular linkers. The peptide complexes were immobilized at the bottom of nanoscale wells on a semiconductor chip, resulting in single peptide molecules with exposed N-termini ready for sequencing. During the sequencing reaction, the surface-immobilized peptides were exposed to a solution containing dye-labeled NAA recognizers that bound on and off to their cognate NAAs with characteristic kinetic properties. Aminopeptidases in solution sequentially removed individual NAAs to expose subsequent amino acids for recognition. Fluorescence lifetime, intensity, and kinetic data were collected in real time and analyzed to determine amino acid sequence and PTM content.

No end group written: not given here. *: point of attachment. FITC = O=C1OC2(c3ccc(O)cc3Oc3cc(O)ccc32)c2ccc(NC(=S)*)cc21

What is called Kd is the constant that tells how readily two partners part at equilibrium.

B1: PS1587 (designed binder)
single polypeptide, two PS1165 units in tandem: MGLENSLETLRFSISNLSMQTHAARMRTFMYWPSSVPVQPEQLASAGFYYVGRNDDVKCFCCDGGLRCWESGDDPWVEHAKWFPRCEFLIRMKGQEFVDEIQGRYPHLLEQLLSEAAAKEAAAKEAAAKMGLENSLETLRFSISNLSMQTHAARMRTFMYWPSSVPVQPEQLASAGFYYVGRNDDVKCFCCDGGLRCWESGDDPWVEHAKWFPRCEFLIRMKGQEFVDEIQGRYPHLLEQLLSG
notes: also called PS1587 (AST)
As to B1, the “PD of a recognition segment in an example trace” value (“PD of a recognition segment” for short) in [1] was found to be 0.32 s; in [2], 0.64 s; in assay [3], 0.75 s; in assay [4], 0.39 s; in assay [5], 0.64 s; in assay [6], 0.87 s. The “PD of a recognition segment” value in assay [7] came to 2.53 s; in assay [8], 1.26 s; in assay [9], 0.75 s; in [10], 0.43 s. Also, the “IPD (interpulse duration)” value in assay [11] came to 15 s; in assay [12] it was 14.7 s; in assay [13], 16.1 s; in assay [14], 16 s; in assay [15] it was 17.2 s; in assay [16] it was 17.4 s. Moreover, the “PD (pulse duration)” value came out at 0.66 s in [11]; 0.76 s in assay [12]; 0.62 s in assay [13]; 0.72 s in assay [14]; 0.72 s in [15]; 0.7 s in assay [16].

B2: PS1220 (designed binder)
single polypeptide, two PS1122 units in tandem: MHSKFSHAGRICGAKFKVGEPIYRCKECSFDDTCVLCVNCFNPKDHLGHHVYTTICTEFNNGECDCGDKTAWNHTLFCKAEEGSAGSAAGSGEFMHSKFSHAGRICGAKFKVGEPIYRCKECSFDDTCVLCVNCFNPKDHLGHHVYTTICTEFNNGECDCGDKTAWNHTLFCKAEEG
notes: also called PS1220 (R); PS1220 (4-CY3B)
Consider B2, for which the “PD of a recognition segment” value worked out at 0.3 s in assay [17]; 0.31 s in assay [18]; 0.94 s in [19]; 0.31 s in [20]; 0.71 s in assay [21]; 0.27 s in assay [22]. For the same molecule, the “PD of a recognition segment” value in assay [23] is 0.34 s; in assay [24], 0.45 s; in assay [25], 0.4 s; in assay [26], 0.3 s. In addition, the “IPD (interpulse duration)” value was determined as 10.5 s in assay [27]; 9.99 s in assay [28]; 11.1 s in [29]; 11.9 s in assay [30]; 10.6 s in [31]; 9.74 s in [32]. In addition, the “PD (pulse duration)” value in assay [27] came to 0.43 s; in assay [28], 0.42 s; in [29], 0.44 s; in assay [30] it was 0.46 s; in [31], 0.37 s; in assay [32] it was 0.4 s.

B3: PS621 (other)
chain: MHSKFSHAGRICGAKFKVGEPIYRCKECSFDDTCVLCVNCFNPKDHTGHHVYTTICTEFNNGICDCGDKEAWNHTLFCKAEEG
notes: tag of the assay construct not specified; also called UBR protein from Kluyveromyces marxianus
On to B3, for which the Kd was determined as 0.475 µM in assay [33], 6.77 µM in assay [34] and 0.475 µM in [35]. Also, the binding result in [36] was “binds”.
